{"source": "paper PMC6393709", "target": "PARP1 (protein used in the SPRi assay) (UniProt P09874)", "sequence (P09874 whole entry, the tested form may be a part)": "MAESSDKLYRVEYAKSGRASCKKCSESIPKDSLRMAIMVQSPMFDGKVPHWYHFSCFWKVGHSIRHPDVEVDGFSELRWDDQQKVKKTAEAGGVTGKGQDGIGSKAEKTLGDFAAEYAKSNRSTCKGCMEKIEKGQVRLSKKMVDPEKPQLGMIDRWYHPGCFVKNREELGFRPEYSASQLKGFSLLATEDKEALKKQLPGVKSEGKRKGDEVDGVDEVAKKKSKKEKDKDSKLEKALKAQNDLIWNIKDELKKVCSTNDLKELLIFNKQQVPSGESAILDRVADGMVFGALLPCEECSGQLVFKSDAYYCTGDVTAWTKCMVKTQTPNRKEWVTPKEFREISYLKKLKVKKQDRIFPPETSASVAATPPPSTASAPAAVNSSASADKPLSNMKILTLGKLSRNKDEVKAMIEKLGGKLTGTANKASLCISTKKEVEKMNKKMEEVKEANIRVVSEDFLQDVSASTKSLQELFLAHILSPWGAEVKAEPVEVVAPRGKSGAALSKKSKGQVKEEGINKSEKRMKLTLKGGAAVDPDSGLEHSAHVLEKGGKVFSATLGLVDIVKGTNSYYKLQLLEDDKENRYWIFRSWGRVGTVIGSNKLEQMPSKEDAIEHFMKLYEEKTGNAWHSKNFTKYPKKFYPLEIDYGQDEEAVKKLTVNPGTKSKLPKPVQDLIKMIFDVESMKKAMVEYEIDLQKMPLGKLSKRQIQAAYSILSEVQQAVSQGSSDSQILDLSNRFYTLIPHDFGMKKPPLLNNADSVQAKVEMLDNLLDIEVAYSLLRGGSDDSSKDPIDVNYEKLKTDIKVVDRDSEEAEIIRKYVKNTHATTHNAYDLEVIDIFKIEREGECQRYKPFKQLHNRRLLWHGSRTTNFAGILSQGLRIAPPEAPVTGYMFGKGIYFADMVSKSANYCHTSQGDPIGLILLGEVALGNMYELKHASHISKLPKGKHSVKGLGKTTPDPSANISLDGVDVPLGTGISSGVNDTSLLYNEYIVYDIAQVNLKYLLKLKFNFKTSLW", "assay": "SPR; SPRi on a PlexArray HT (V3), 25°C, 1x PBS pH 7.4", "data": [{"substance": "F-actin domain of ABL1 (domain or fragment)", "values": [{"measurement": "Kd", "value": 13.6, "unit": "nM"}]}]}
